The values that follow come from patent US20140018302A1 (SALK INSTITUTE FOR BIOLOGICAL STUDIES INTELLECTUAL PROPERTY …, published 2014).

Test [1] deals with T1, recombinant full-length HDMX (UniProt O15151 1-490).
T1 construct: mature; Full-length protein after TEV cleavage of the tags; also called HDM4
T1 sequence (looked up): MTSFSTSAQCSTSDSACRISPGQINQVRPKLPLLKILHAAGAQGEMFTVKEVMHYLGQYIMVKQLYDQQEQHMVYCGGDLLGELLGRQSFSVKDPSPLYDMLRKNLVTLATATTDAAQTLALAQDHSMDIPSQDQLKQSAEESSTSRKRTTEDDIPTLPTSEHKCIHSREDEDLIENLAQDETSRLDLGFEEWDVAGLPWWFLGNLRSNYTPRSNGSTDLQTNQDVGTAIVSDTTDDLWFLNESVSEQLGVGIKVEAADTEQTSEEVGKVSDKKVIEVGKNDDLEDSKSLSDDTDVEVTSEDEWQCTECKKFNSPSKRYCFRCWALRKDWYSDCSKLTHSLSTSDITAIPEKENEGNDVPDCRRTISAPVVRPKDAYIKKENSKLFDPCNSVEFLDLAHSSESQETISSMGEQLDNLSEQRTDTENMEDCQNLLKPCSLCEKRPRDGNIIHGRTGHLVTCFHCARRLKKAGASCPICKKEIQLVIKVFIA
As to the kind of experiment: fluorescence polarization, 25 nM FITC-peptide. How it is done: Fluorescence polarization was then measured at equilibrium on a SpectraMax M5 microplate reader (Molecular Devices).

Test [2] concerns the target T2, native HDM2 (intracellular, in SJSA-X cells) (UniProt Q00987 1-491, limits assumed).
T2 construct: mature; Cellular protein in the anti-FITC pull-down; also called intracellular HDM2
The test can be described thus: anti-FITC pull-down from SJSA-X cells, HDM2 western.

The target of test [3] is T3, native HDMX (intracellular, in SJSA-X, JEG-3 and MCF-7 cells) (UniProt O15151 1-490).
T3 construct: mature; Cellular protein in co-immunoprecipitation experiments; In SJSA-X cells it is overexpressed by engineering; also called intracellular HDMX
T3 sequence (looked up): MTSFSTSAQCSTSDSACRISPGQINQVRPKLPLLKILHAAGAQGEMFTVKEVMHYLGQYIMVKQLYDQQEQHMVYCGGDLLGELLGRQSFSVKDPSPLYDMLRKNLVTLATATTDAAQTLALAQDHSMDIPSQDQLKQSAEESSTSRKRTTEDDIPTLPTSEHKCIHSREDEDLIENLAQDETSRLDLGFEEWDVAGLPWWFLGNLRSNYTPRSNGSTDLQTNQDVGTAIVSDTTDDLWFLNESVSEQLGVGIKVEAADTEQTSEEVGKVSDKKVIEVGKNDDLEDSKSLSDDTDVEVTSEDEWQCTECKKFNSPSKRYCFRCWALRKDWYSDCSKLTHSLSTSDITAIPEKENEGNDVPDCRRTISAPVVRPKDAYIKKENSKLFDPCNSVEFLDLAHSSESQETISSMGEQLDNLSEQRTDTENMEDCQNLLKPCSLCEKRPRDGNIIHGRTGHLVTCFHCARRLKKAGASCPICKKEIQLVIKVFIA
The test can be described thus: anti-FITC pull-down from SJSA-X cells, HDMX western.

Positions of bridges follow the written chain, without caps; N, C: chain ends. Non-standard residues stand in square brackets, D forms with d. No end group written: not given here. *: point of attachment. FITC = O=C1OC2(c3ccc(O)cc3Oc3cc(O)ccc32)c2ccc(NC(=S)*)cc21; R8 = C=CCCCCCC[C@@](C)(N)C(=O)O; S5 = C=CCCC[C@](C)(N)C(=O)O

T2 sequence (Q00987 whole entry): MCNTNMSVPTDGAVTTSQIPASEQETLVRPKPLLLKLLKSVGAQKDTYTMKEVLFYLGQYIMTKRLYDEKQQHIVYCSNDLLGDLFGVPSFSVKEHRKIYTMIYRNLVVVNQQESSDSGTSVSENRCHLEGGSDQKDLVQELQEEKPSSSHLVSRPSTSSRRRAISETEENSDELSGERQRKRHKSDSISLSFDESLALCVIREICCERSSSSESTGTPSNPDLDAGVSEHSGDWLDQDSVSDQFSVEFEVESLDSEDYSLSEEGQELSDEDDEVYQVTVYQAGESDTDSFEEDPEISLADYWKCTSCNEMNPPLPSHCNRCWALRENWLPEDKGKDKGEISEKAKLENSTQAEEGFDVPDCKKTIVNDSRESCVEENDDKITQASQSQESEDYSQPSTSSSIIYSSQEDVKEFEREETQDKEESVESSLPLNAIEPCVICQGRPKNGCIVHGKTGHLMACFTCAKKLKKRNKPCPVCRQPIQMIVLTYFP

B1: FITC-WT-p53 14-29 (peptide)
peptide: {FITC}-LSQETFSDLWKLLPEN
notes: Unstapled wild-type peptide, FITC-labeled in the FP assay; also called wild type p53 peptide
Take B1: the binding result in test [1] was “no binding (tested: 25 pM-100 nM protein)”.

B2: SAH-p53-8F19A (peptide)
peptide: QSQQTA[R8]NLWRLL[S5]QN
modifications: staple 7-14; not fully specified (N-terminus, C-terminus); also: N-terminal FITC in binding assays
notes: also called FITC-SAH-p53-8F19A
For the molecule B2, the binding result in test [2] was “no binding (tested: 15 uM peptide on cells)”; in test [1] it was “no binding (tested: 25 pM-100 nM protein)”; in test [3] it was “no binding (tested: 15 uM peptide on cells)”.
